Among the data in the supplement of paper PMC10567573 are protein stability index values, retold here.

The nature of this data set: protein stability index of a GFP-peptide fusion (GPS, HEK-293T) (PSI 1-6); higher = more stable. The following applies: c terminus: a fixed tail appended.

± gives the standard deviation.
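Also: 24-mer peptide tiles fused after GFP, lentivirally expressed, FACS-sorted into six equal bins by GFP/DsRed ratio, decoded by Illumina sequencing, PSI is the read-weighted mean bin number.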

With DAVTAALLIPKEDGVITASEDRTI [WDFY1], the protein stability index is, setting by setting: (treatment: DMSO) 4.7 ± 0.13; (treatment: MLN4924 1 uM, 8 h) 4.86 ± 0.27.
Take DCEMNSPQVPPSQPLRPWAGGDVP [DYRK1B]: the protein stability index reads like this: (treatment: DMSO) 4.32 ± 0.13; (treatment: MLN4924 1 uM, 8 h) 4.62 ± 0.15.
Taken in the same sequence, the figures for DDHSVRVAREDVRESCPPLGLETL [CPXM2] were 4.85 ± 0.37 and 4.92 ± 0.18.
For DEGRLLLEFDLLIFSFGQLPLALV [SOAT2], in that order: 3.16 ± 0.11 and 2.81 ± 0.46.
For DFNLCLFYLPSSPNLSLASEDEEE [SMG5], in that order: 2.85 ± 0.21 and 3.14 ± 0.24.
The sequence DGIRGKVGHARGLHAWQINWPARQ [SPSB4] gave a protein stability index (treatment: DMSO) of 2.8 ± 0.19 and a protein stability index (treatment: MLN4924 1 uM, 8 h) of 2.67 ± 0.31.
Taken in the same sequence, the figures for DGKLFPSDGFRDCKKGDPKHGKRK [ELF3] were 5.1 ± 0.29 and 5.38 ± 0.26.
Taken in the same sequence, the figures for DGLDLDWEYPGSQGSPAVDKERFT [CHIT1] were 4.94 ± 0.21 and 5.04 ± 0.19.
Sequence DGSDFQHRERVAMHYQMSVTLKYE [JAGN1] registered a protein stability index (treatment: DMSO) of 2.62 ± 0.26 and a protein stability index (treatment: MLN4924 1 uM, 8 h) of 2.87 ± 0.24.
For DGTGRMPTLKKCEDVARPTQRLWD [GALNT9], in that order: 4.01 ± 0.31 and 4.13 ± 0.19.
For DHMVRMHLYPADFRFDKPKKSRSP [ZNF511], in that order: 3.42 ± 0.38 and 3.77 ± 0.43.
For DIAAGEELLYDYGDRSKASIEAHP [KMT5A], in that order: 5.09 ± 0.2 and 5.28 ± 0.19.
DIDVQLSSELTDSLRTLKPEGNIL [NOP53]: the protein stability index reads like this: (treatment: DMSO) 4.1 ± 0.29; (treatment: MLN4924 1 uM, 8 h) 4.06 ± 0.36.
Taken in the same sequence, the figures for DILEEEKIYAYPSNITSETGFRTI [TMEM192] were 3.04 ± 0.33 and 3.4 ± 0.25.
Taken in the same sequence, the figures for DITQSIEDDPLLDAQLLPHHSLQA [TMEM192] were 4.15 ± 0.22 and 4.1 ± 0.37.
For DKAVEIEELTYIIKQDINSLNKQI [STX5], in that order: 2.91 ± 0.14 and 3.12 ± 0.56.
DKNISPRENILVSLGAVGEGFHNY [SCD]: the protein stability index by setting is: (treatment: DMSO) 3.23 ± 0.49; (treatment: MLN4924 1 uM, 8 h) 3.18 ± 0.24.
Taken in the same sequence, the figures for DKVGLITLSDWAAAVESVLHLGLP [PPEF2] were 2.5 ± 0.25 and 2.31 ± 0.64.
With DLDRMGVMTLPSDLRKHRRKLLSP [PPFIA4], the protein stability index (treatment: DMSO) came out at 3.72 ± 0.25 and the protein stability index (treatment: MLN4924 1 uM, 8 h) turned out to be 3.73 ± 0.12.
For DLKPTGEIPKQVKVKKLKNLKTLD [DENND6A], in that order: 4.24 ± 0.25 and 4.24 ± 0.31.
Taken in the same sequence, the figures for DLQLTVGGAQASGTLIGVGQSVTA [MFSD9] were 3.52 ± 0.34 and 3.6 ± 0.24.
For the sequence DLSKIIRTSSGTSREKTACAINKV [FAM98B], the protein stability index is, setting by setting: (treatment: DMSO) 3.06 ± 0.27; (treatment: MLN4924 1 uM, 8 h) 3.19 ± 0.6.
Taken in the same sequence, the figures for DLVMALSAGGHGGLLNDTSAPHLE [KCNA4] were 2.8 ± 0.35 and 2.58 ± 0.26.
Taken in the same sequence, the figures for DMAGKIKLWDLRTTKCVRQYEGHV [DCAF4] were 2.56 ± 0.18 and 2.68 ± 0.35.
In the case of DNQWMTQINRLQKLIDRLEKKDLK [NECAB1], the protein stability index runs as follows: (treatment: DMSO) 2.13 ± 0.43; (treatment: MLN4924 1 uM, 8 h) 3.16 ± 0.33.
For DPAPLWGPPPAQGSPGDGGLQDQV [EMID1], in that order: 5.22 ± 0.27 and 5.2 ± 0.26.
Taken in the same sequence, the figures for DPNFKMEHQNKRSPLHAAAEAGHV [EHMT1] were 4.89 ± 0.22 and 5.04 ± 0.18.
Consider DQDLRTYLDKAPPPGLPAETIKDL [CDK4], for which the protein stability index stood at 5.07 ± 0.28 (treatment: DMSO) and 4.94 ± 0.2 (treatment: MLN4924 1 uM, 8 h).
In the case of DRENGSDNLPSSAGSGDKPLSDPA [TPD52L2], the protein stability index amounted to 5.49 ± 0.26 (treatment: DMSO) and 5.45 ± 0.29 (treatment: MLN4924 1 uM, 8 h).
